{
  "source": "paper PMC12416549",
  "about": "(2024)",
  "binders": {"B1": {"name": "E61D (designed binder)", "chain": "SMEEEVEKAAKEYEKKKKEAIEKHLEKLKAKDKEAAERFLKELEEAAKEYAKDEAKTMSEDEAKRRAKKYKEKVLLSELSEEEQKEIKEAEEKLVRTILKYVEEAAK"}, "B2": {"name": "K64V (designed binder)", "chain": "SMEEEVEKAAKEYEKKKKEAIEKHLEKLKAKDKEAAERFLKELEEAAKEYAKDEAKTMSEEEAVRRAKKYKEKVLLSELSEEEQKEIKEAEEKLVRTILKYVEEAAK"}, "B3": {"name": "E45K (designed binder)", "chain": "SMEEEVEKAAKEYEKKKKEAIEKHLEKLKAKDKEAAERFLKELEKAAKEYAKDEAKTMSEEEAKRRAKKYKEKVLLSELSEEEQKEIKEAEEKLVRTILKYVEEAAK"}, "B4": {"name": "E91N (designed binder)", "chain": "SMEEEVEKAAKEYEKKKKEAIEKHLEKLKAKDKEAAERFLKELEEAAKEYAKDEAKTMSEEEAKRRAKKYKEKVLLSELSEEEQKEIKEANEKLVRTILKYVEEAAK"}, "B5": {"name": "T97I (designed binder)", "chain": "SMEEEVEKAAKEYEKKKKEAIEKHLEKLKAKDKEAAERFLKELEEAAKEYAKDEAKTMSEEEAKRRAKKYKEKVLLSELSEEEQKEIKEAEEKLVRIILKYVEEAAK"}, "B6": {"name": "K23W (designed binder)", "chain": "SMEEEVEKAAKEYEKKKKEAIEWHLEKLKAKDKEAAERFLKELEEAAKEYAKDEAKTMSEEEAKRRAKKYKEKVLLSELSEEEQKEIKEAEEKLVRTILKYVEEAAK"}, "B7": {"name": "S59P (designed binder)", "chain": "SMEEEVEKAAKEYEKKKKEAIEKHLEKLKAKDKEAAERFLKELEEAAKEYAKDEAKTMPEEEAKRRAKKYKEKVLLSELSEEEQKEIKEAEEKLVRTILKYVEEAAK"}, "B8": {"name": "A20Y (designed binder)", "chain": "SMEEEVEKAAKEYEKKKKEYIEKHLEKLKAKDKEAAERFLKELEEAAKEYAKDEAKTMSEEEAKRRAKKYKEKVLLSELSEEEQKEIKEAEEKLVRTILKYVEEAAK"}, "B9": {"name": "K71V (designed binder)", "chain": "SMEEEVEKAAKEYEKKKKEAIEKHLEKLKAKDKEAAERFLKELEEAAKEYAKDEAKTMSEEEAKRRAKKYVEKVLLSELSEEEQKEIKEAEEKLVRTILKYVEEAAK"}, "B10": {"name": "E19A (designed binder)", "chain": "SMEEEVEKAAKEYEKKKKAAIEKHLEKLKAKDKEAAERFLKELEEAAKEYAKDEAKTMSEEEAKRRAKKYKEKVLLSELSEEEQKEIKEAEEKLVRTILKYVEEAAK"}, "B11": {"name": "L40W (designed binder)", "chain": "SMEEEVEKAAKEYEKKKKEAIEKHLEKLKAKDKEAAERFWKELEEAAKEYAKDEAKTMSEEEAKRRAKKYKEKVLLSELSEEEQKEIKEAEEKLVRTILKYVEEAAK"}, "B12": {"name": "V6R (designed binder)", "chain": "SMEEEREKAAKEYEKKKKEAIEKHLEKLKAKDKEAAERFLKELEEAAKEYAKDEAKTMSEEEAKRRAKKYKEKVLLSELSEEEQKEIKEAEEKLVRTILKYVEEAAK"}, "B13": {"name": "L79T (designed binder)", "chain": "SMEEEVEKAAKEYEKKKKEAIEKHLEKLKAKDKEAAERFLKELEEAAKEYAKDEAKTMSEEEAKRRAKKYKEKVLLSETSEEEQKEIKEAEEKLVRTILKYVEEAAK"}, "B14": {"name": "E83D (designed binder)", "chain": "SMEEEVEKAAKEYEKKKKEAIEKHLEKLKAKDKEAAERFLKELEEAAKEYAKDEAKTMSEEEAKRRAKKYKEKVLLSELSEEDQKEIKEAEEKLVRTILKYVEEAAK"}, "B15": {"name": "A55H (designed binder)", "chain": "SMEEEVEKAAKEYEKKKKEAIEKHLEKLKAKDKEAAERFLKELEEAAKEYAKDEHKTMSEEEAKRRAKKYKEKVLLSELSEEEQKEIKEAEEKLVRTILKYVEEAAK"}, "B16": {"name": "E92V (designed binder)", "chain": "SMEEEVEKAAKEYEKKKKEAIEKHLEKLKAKDKEAAERFLKELEEAAKEYAKDEAKTMSEEEAKRRAKKYKEKVLLSELSEEEQKEIKEAEVKLVRTILKYVEEAAK"}, "B17": {"name": "E104F (designed binder)", "chain": "SMEEEVEKAAKEYEKKKKEAIEKHLEKLKAKDKEAAERFLKELEEAAKEYAKDEAKTMSEEEAKRRAKKYKEKVLLSELSEEEQKEIKEAEEKLVRTILKYVEFAAK"}, "B18": {"name": "K56I (designed binder)", "chain": "SMEEEVEKAAKEYEKKKKEAIEKHLEKLKAKDKEAAERFLKELEEAAKEYAKDEAITMSEEEAKRRAKKYKEKVLLSELSEEEQKEIKEAEEKLVRTILKYVEEAAK"}, "B19": {"name": "E37W (designed binder)", "chain": "SMEEEVEKAAKEYEKKKKEAIEKHLEKLKAKDKEAAWRFLKELEEAAKEYAKDEAKTMSEEEAKRRAKKYKEKVLLSELSEEEQKEIKEAEEKLVRTILKYVEEAAK"}, "B20": {"name": "A106C (designed binder)", "chain": "SMEEEVEKAAKEYEKKKKEAIEKHLEKLKAKDKEAAERFLKELEEAAKEYAKDEAKTMSEEEAKRRAKKYKEKVLLSELSEEEQKEIKEAEEKLVRTILKYVEEACK"}, "B21": {"name": "L25Q (designed binder)", "chain": "SMEEEVEKAAKEYEKKKKEAIEKHQEKLKAKDKEAAERFLKELEEAAKEYAKDEAKTMSEEEAKRRAKKYKEKVLLSELSEEEQKEIKEAEEKLVRTILKYVEEAAK"}, "B22": {"name": "K93V (designed binder)", "chain": "SMEEEVEKAAKEYEKKKKEAIEKHLEKLKAKDKEAAERFLKELEEAAKEYAKDEAKTMSEEEAKRRAKKYKEKVLLSELSEEEQKEIKEAEEVLVRTILKYVEEAAK"}, "B23": {"name": "K33W (designed binder)", "chain": "SMEEEVEKAAKEYEKKKKEAIEKHLEKLKAKDWEAAERFLKELEEAAKEYAKDEAKTMSEEEAKRRAKKYKEKVLLSELSEEEQKEIKEAEEKLVRTILKYVEEAAK"}, "B24": {"name": "R96L (designed binder)", "chain": "SMEEEVEKAAKEYEKKKKEAIEKHLEKLKAKDKEAAERFLKELEEAAKEYAKDEAKTMSEEEAKRRAKKYKEKVLLSELSEEEQKEIKEAEEKLVLTILKYVEEAAK"}, "B25": {"name": "F39R (designed binder)", "chain": "SMEEEVEKAAKEYEKKKKEAIEKHLEKLKAKDKEAAERRLKELEEAAKEYAKDEAKTMSEEEAKRRAKKYKEKVLLSELSEEEQKEIKEAEEKLVRTILKYVEEAAK"}, "B26": {"name": "A55R (designed binder)", "chain": "SMEEEVEKAAKEYEKKKKEAIEKHLEKLKAKDKEAAERFLKELEEAAKEYAKDERKTMSEEEAKRRAKKYKEKVLLSELSEEEQKEIKEAEEKLVRTILKYVEEAAK"}, "B27": {"name": "T57H (designed binder)", "chain": "SMEEEVEKAAKEYEKKKKEAIEKHLEKLKAKDKEAAERFLKELEEAAKEYAKDEAKHMSEEEAKRRAKKYKEKVLLSELSEEEQKEIKEAEEKLVRTILKYVEEAAK"}, "B28": {"name": "Q84I (designed binder)", "chain": "SMEEEVEKAAKEYEKKKKEAIEKHLEKLKAKDKEAAERFLKELEEAAKEYAKDEAKTMSEEEAKRRAKKYKEKVLLSELSEEEIKEIKEAEEKLVRTILKYVEEAAK"}, "B29": {"name": "E78Y (designed binder)", "chain": "SMEEEVEKAAKEYEKKKKEAIEKHLEKLKAKDKEAAERFLKELEEAAKEYAKDEAKTMSEEEAKRRAKKYKEKVLLSYLSEEEQKEIKEAEEKLVRTILKYVEEAAK"}, "B30": {"name": "K41Y (designed binder)", "chain": "SMEEEVEKAAKEYEKKKKEAIEKHLEKLKAKDKEAAERFLYELEEAAKEYAKDEAKTMSEEEAKRRAKKYKEKVLLSELSEEEQKEIKEAEEKLVRTILKYVEEAAK"}, "B31": {"name": "D53E (designed binder)", "chain": "SMEEEVEKAAKEYEKKKKEAIEKHLEKLKAKDKEAAERFLKELEEAAKEYAKEEAKTMSEEEAKRRAKKYKEKVLLSELSEEEQKEIKEAEEKLVRTILKYVEEAAK"}, "B32": {"name": "K85C (designed binder)", "chain": "SMEEEVEKAAKEYEKKKKEAIEKHLEKLKAKDKEAAERFLKELEEAAKEYAKDEAKTMSEEEAKRRAKKYKEKVLLSELSEEEQCEIKEAEEKLVRTILKYVEEAAK"}, "B33": {"name": "I87H (designed binder)", "chain": "SMEEEVEKAAKEYEKKKKEAIEKHLEKLKAKDKEAAERFLKELEEAAKEYAKDEAKTMSEEEAKRRAKKYKEKVLLSELSEEEQKEHKEAEEKLVRTILKYVEEAAK"}},
  "data": [
    {"target": "T1, TNFR1 (Homo sapiens, UniProt P19438)", "T1 chain": "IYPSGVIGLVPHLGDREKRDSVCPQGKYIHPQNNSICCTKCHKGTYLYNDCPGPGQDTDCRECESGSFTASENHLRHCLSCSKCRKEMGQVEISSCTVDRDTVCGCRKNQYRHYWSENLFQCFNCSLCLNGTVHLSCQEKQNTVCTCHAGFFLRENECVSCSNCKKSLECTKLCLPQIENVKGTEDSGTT", "experiment": "yeast display SC50", "units": {"apparent Kd (screen)": "nM"}, "values": [
      {"binder": "B1", "apparent Kd (screen)": 1.05},
      {"binder": "B2", "apparent Kd (screen)": 0.653},
      {"binder": "B3", "apparent Kd (screen)": 12.5},
      {"binder": "B4", "apparent Kd (screen)": 0.653},
      {"binder": "B5", "apparent Kd (screen)": 2.05},
      {"binder": "B6", "apparent Kd (screen)": 0.956},
      {"binder": "B7", "apparent Kd (screen)": 0.446},
      {"binder": "B8", "apparent Kd (screen)": 0.446},
      {"binder": "B9", "apparent Kd (screen)": 0.446},
      {"binder": "B10", "apparent Kd (screen)": 0.869},
      {"binder": "B11", "apparent Kd (screen)": 0.49},
      {"binder": "B12", "apparent Kd (screen)": 0.653},
      {"binder": "B13", "apparent Kd (screen)": 1.86},
      {"binder": "B14", "apparent Kd (screen)": 1.16},
      {"binder": "B15", "apparent Kd (screen)": 12.5},
      {"binder": "B16", "apparent Kd (screen)": 12.5},
      {"binder": "B17", "apparent Kd (screen)": 0.593},
      {"binder": "B18", "apparent Kd (screen)": 2.73},
      {"binder": "B19", "apparent Kd (screen)": 0.49},
      {"binder": "B20", "apparent Kd (screen)": 3},
      {"binder": "B21", "apparent Kd (screen)": 1.54},
      {"binder": "B22", "apparent Kd (screen)": 1.16},
      {"binder": "B23", "apparent Kd (screen)": 0.869},
      {"binder": "B24", "apparent Kd (screen)": 0.718},
      {"binder": "B25", "apparent Kd (screen)": 5.84},
      {"binder": "B26", "apparent Kd (screen)": 1.05},
      {"binder": "B27", "apparent Kd (screen)": 0.277},
      {"binder": "B28", "apparent Kd (screen)": 2.73},
      {"binder": "B29", "apparent Kd (screen)": 0.446},
      {"binder": "B30", "apparent Kd (screen)": 0.446},
      {"binder": "B31", "apparent Kd (screen)": 0.718},
      {"binder": "B32", "apparent Kd (screen)": 0.539},
      {"binder": "B33", "apparent Kd (screen)": 2.25}
    ]}
  ]
}
